The record followed here is patent US20250025478A1 (published 2025).

Test [1] deals with T1, RNF213-TurboID (Homo sapiens (Human), UniProt Q63HN8 1-5207).
T1 construct: Recombined into HeLa FlpIn-TRex RNF213-KO cells; proximity-labelling bait; also called C-Turbo; 3×-FLAG-RNF213-TurboID; not shown: 3×-FLAG tag; TurboID biotin ligase at the C-terminus
The test can be described thus: TurboID proximity biotinylation, streptavidin recovery, MS, SAINT express (FIG. 2B). The method, then: RNF213-interacting proteins were identified to evaluate how RNF213 regulates hypoxia sensitivity (FIG. 2A). TurboID-RNF213 (“N-Turbo”), RNF213-TurboID (“C-Turbo”), or TurboID alone (Control Turbo) were recombined into HeLa FlpIn-TRex RNF213-KO cells. These cells were labelled with biotin for 10 min., and biotinylated proteins were recovered on streptavidin, digested with trypsin, and analyzed by MS (FIG. 2A). Proteins were ranked as potential binding partners by using the SAINT express algorithm³⁶ Immunoblotting (FIG. 9A) and silver staining (FIG. 9B) confirmed that similar amounts of each sample were submitted for analysis. Relatively few proteins labelled by N-Turbo were labelled to an extent greater than their labeling by Control-Turbo (FIG. 9C). […] Among the other top candidates were the major K63-deubiquitinase and NF-κB regulator CYLD and its interacting protein SPATA2 (FIG. 2B, orange-colored arrows). […] Other top C-Turbo interactors included proteins involved in VEGF signaling, which is induced in hypoxia (FLII, MYOF^{39,40}), inflammation and atherosclerosis (MAP4K4, SPTLC1^{41,42}), lipotoxicity (SPTLC1, ALDH1B1^{43,44}), ischemia response (CPEB4⁴⁵), and stroke (SARS2⁴⁶). Top N-Turbo interactors included CYP51A1, which plays a crucial role in cholesterol metabolism and atherosclerosis⁴⁷.
Cells were cultured in standard media but with 10% tetracycline (Tet)-free FBS (Clonetech) for at least 1 week. Tet-free/biotin-free FBS was generated by incubating Tet-free FBS with sterile streptavidin beads overnight followed by centrifugation to remove the beads. N-Turbo, C-Turbo, and Turbo proteins were induced by adding 1 μg/ml Dox to cells for 36 hours. For the last ten min. of incubation, 500 μM of biotin was added to the medium.

Test [2] has as its target T2, 3×-FLAG-RNF213 (Homo sapiens (Human), UniProt Q63HN8 1-5207, phosphotyrosine at Y1275 (found by MS in cells; phosphorylated by ABL1 in vitro)).
T2 construct: Expressed from pcDNA5-3x-FLAG-RNF213; also called WT-RNF213; wild type RNF213; not shown: 3×-FLAG tag
As to the kind of experiment: co-immunoprecipitation/immunoblot (FIG. 2D). (In western blotting, separated proteins are transferred to a membrane and probed.)

Test [3] concerns the target T3, TurboID-RNF213 (Homo sapiens (Human), UniProt Q63HN8 1-5207).
T3 construct: Recombined into HeLa FlpIn-TRex RNF213-KO cells; proximity-labelling bait; also called N-Turbo; not shown: TurboID biotin ligase at the N-terminus
As to the kind of experiment: TurboID proximity biotinylation, streptavidin recovery, MS, SAINT express (FIG. 9C). The method, then: RNF213-interacting proteins were identified to evaluate how RNF213 regulates hypoxia sensitivity (FIG. 2A). TurboID-RNF213 (“N-Turbo”), RNF213-TurboID (“C-Turbo”), or TurboID alone (Control Turbo) were recombined into HeLa FlpIn-TRex RNF213-KO cells. These cells were labelled with biotin for 10 min., and biotinylated proteins were recovered on streptavidin, digested with trypsin, and analyzed by MS (FIG. 2A). Proteins were ranked as potential binding partners by using the SAINT express algorithm³⁶ Immunoblotting (FIG. 9A) and silver staining (FIG. 9B) confirmed that similar amounts of each sample were submitted for analysis. Relatively few proteins labelled by N-Turbo were labelled to an extent greater than their labeling by Control-Turbo (FIG. 9C). […] Among the other top candidates were the major K63-deubiquitinase and NF-κB regulator CYLD and its interacting protein SPATA2 (FIG. 2B, orange-colored arrows). […] Other top C-Turbo interactors included proteins involved in VEGF signaling, which is induced in hypoxia (FLII, MYOF^{39,40}), inflammation and atherosclerosis (MAP4K4, SPTLC1^{41,42}), lipotoxicity (SPTLC1, ALDH1B1^{43,44}), ischemia response (CPEB4⁴⁵), and stroke (SARS2⁴⁶). Top N-Turbo interactors included CYP51A1, which plays a crucial role in cholesterol metabolism and atherosclerosis⁴⁷. […]

T1 sequence (Q63HN8 whole entry N1045D): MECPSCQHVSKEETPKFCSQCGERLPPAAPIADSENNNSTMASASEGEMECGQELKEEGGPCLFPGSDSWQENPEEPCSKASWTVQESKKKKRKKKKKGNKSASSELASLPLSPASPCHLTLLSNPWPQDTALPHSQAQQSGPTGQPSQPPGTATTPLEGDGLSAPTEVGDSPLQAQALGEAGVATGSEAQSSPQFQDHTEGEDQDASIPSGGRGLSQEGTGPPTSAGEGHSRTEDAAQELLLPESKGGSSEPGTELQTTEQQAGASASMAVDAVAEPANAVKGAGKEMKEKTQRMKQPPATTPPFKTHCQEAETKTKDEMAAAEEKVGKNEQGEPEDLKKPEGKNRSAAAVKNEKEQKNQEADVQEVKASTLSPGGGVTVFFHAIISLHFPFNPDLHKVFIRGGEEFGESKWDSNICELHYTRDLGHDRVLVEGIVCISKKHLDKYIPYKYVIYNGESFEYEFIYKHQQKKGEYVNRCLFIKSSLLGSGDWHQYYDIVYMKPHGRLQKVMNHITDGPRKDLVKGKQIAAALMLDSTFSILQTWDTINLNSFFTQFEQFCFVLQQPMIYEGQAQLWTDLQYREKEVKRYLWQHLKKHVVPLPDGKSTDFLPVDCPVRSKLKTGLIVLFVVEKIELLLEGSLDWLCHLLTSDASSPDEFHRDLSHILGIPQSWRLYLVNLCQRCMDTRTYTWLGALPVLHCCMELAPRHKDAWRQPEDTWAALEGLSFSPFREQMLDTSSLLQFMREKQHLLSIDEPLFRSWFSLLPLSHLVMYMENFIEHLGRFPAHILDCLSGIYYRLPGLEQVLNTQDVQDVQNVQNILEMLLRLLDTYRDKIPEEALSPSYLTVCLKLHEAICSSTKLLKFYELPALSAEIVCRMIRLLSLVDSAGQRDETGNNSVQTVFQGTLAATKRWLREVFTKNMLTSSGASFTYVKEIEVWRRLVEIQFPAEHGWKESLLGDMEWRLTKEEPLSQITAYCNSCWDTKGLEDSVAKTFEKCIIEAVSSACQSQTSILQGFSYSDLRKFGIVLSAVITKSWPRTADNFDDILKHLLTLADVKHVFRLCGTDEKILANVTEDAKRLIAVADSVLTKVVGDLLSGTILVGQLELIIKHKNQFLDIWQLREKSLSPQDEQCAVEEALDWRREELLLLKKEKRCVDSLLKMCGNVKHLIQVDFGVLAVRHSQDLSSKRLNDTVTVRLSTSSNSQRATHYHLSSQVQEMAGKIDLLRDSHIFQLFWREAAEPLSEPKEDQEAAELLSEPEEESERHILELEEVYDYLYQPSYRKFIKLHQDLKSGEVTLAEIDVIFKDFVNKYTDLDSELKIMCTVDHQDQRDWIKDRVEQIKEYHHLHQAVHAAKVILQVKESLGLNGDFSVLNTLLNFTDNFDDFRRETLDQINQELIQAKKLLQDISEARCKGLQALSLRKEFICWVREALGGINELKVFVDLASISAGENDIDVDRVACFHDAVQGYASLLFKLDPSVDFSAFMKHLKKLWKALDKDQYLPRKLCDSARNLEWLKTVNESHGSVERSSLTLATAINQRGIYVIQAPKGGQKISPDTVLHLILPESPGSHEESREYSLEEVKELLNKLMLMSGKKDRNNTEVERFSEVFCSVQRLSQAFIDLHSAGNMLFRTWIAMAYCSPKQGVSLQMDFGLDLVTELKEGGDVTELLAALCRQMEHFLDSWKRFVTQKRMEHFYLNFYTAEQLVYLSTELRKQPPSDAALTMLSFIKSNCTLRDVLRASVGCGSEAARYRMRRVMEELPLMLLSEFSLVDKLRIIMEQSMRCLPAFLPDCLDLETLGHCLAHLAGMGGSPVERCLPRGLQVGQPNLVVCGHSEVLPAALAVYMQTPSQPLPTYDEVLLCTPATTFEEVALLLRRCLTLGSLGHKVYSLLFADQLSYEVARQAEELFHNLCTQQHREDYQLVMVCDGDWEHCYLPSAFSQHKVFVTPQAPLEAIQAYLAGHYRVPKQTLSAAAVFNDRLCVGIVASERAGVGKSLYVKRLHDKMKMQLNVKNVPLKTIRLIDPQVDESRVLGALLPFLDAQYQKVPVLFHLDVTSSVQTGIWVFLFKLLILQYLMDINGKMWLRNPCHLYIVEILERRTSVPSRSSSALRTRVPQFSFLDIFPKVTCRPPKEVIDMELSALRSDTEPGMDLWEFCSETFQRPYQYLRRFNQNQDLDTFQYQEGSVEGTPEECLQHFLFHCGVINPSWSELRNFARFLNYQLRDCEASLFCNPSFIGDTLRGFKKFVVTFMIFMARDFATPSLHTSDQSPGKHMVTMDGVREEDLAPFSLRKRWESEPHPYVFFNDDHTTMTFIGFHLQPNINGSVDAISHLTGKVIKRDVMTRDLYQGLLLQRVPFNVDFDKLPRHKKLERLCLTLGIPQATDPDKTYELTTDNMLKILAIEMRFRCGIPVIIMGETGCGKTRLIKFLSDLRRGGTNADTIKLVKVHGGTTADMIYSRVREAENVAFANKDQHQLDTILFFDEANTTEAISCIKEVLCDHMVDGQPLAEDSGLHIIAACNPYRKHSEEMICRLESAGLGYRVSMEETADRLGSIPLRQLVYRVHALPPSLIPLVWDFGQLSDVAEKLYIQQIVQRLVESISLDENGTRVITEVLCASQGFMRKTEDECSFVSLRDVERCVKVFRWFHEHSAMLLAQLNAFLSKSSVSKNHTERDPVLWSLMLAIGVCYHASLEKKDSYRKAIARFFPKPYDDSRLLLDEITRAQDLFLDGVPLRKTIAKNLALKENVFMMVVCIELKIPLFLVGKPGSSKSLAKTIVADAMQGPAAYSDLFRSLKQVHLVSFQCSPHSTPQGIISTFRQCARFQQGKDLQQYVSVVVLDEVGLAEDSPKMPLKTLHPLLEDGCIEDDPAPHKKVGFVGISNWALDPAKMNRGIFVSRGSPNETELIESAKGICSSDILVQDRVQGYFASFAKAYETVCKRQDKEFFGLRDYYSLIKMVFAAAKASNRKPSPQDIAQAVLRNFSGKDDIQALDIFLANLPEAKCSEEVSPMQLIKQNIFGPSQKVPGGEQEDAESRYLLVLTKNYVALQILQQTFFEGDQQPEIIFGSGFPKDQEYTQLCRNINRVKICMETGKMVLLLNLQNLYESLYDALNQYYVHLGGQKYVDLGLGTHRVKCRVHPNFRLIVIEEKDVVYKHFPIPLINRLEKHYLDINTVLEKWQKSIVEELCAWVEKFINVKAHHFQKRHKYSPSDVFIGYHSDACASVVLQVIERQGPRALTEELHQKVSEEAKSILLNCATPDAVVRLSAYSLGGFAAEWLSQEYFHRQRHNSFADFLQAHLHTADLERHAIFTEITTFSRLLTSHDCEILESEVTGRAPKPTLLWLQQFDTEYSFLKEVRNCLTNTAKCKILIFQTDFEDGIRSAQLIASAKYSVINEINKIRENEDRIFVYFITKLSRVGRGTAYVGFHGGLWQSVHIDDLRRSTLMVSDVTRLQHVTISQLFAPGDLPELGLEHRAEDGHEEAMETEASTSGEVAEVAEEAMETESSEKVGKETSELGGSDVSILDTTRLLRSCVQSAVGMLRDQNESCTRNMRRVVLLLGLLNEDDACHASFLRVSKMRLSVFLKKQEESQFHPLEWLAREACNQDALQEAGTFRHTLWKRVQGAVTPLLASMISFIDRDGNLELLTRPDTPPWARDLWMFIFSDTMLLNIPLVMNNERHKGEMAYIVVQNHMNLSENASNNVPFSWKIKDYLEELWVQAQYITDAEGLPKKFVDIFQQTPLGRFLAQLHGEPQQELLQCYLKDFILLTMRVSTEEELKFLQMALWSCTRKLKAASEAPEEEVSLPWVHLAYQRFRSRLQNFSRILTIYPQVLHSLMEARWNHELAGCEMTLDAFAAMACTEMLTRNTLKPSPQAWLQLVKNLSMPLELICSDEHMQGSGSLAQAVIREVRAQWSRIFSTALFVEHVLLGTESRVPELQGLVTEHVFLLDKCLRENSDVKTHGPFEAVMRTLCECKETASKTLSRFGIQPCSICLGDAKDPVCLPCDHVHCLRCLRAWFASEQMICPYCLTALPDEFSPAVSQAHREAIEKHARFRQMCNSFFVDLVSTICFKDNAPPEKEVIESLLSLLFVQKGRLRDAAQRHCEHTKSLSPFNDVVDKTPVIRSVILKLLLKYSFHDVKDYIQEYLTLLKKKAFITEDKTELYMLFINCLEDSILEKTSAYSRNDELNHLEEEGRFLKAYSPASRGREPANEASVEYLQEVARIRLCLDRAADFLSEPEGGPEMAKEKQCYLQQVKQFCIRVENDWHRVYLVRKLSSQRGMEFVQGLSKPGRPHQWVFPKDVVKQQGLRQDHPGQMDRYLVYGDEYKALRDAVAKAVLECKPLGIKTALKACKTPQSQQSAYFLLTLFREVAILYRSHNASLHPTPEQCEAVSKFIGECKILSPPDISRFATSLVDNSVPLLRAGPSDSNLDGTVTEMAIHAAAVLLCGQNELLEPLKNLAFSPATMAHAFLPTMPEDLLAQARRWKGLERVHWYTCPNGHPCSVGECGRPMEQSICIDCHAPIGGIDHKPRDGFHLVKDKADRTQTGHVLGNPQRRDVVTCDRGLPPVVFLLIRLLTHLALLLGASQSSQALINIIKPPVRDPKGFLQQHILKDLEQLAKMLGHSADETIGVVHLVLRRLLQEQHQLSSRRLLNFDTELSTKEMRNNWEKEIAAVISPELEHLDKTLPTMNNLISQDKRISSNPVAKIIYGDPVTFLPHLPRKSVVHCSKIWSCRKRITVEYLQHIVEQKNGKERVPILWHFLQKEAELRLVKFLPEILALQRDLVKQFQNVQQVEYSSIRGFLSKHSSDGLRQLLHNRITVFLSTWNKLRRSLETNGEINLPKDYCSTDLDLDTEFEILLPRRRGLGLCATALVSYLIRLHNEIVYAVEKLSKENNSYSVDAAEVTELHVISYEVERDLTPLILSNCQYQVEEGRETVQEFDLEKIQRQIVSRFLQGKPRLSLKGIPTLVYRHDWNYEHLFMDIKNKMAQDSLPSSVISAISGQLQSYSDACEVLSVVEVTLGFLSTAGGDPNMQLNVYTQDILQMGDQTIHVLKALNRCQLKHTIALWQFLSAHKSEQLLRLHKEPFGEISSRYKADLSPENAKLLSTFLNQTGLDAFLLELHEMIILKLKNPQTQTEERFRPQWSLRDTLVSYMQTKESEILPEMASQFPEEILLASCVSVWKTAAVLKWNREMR

B1: USP15 (enzyme, human, UniProt Q9Y4E8 2-981, looked up)
chain: AEGGAADLDTQRSDIATLLKTSLRKGDTWYLVDSRWFKQWKKYVGFDSWDKYQMGDQNVYPGPIDNSGLLKDGDAQSLKEHLIDELDYILLPTEGWNKLVSWYTLMEGQEPIARKVVEQGMFVKHCKVEVYLTELKLCENGNMNNVVTRRFSKADTIDTIEKEIRKIFSIPDEKETRLWNKYMSNTFEPLNKPDSTIQDAGLYQGQVLVIEQKNEDGTWPRGPSTPKSPGASNFSTLPKISPSSLSNNYNNMNNRNVKNSNYCLPSYTAYKNYDYSEPGRNNEQPGLCGLSNLGNTCFMNSAIQCLSNTPPLTEYFLNDKYQEELNFDNPLGMRGEIAKSYAELIKQMWSGKFSYVTPRAFKTQVGRFAPQFSGYQQQDCQELLAFLLDGLHEDLNRIRKKPYIQLKDADGRPDKVVAEEAWENHLKRNDSIIVDIFHGLFKSTLVCPECAKISVTFDPFCYLTLPLPMKKERTLEVYLVRMDPLTKPMQYKVVVPKIGNILDLCTALSALSGIPADKMIVTDIYNHRFHRIFAMDENLSSIMERDDIYVFEININRTEDTEHVIIPVCLREKFRHSSYTHHTGSSLFGQPFLMAVPRNNTEDKLYNLLLLRMCRYVKISTETEETEGSLHCCKDQNINGNGPNGIHEEGSPSEMETDEPDDESSQDQELPSENENSQSEDSVGGDNDSENGLCTEDTCKGQLTGHKKRLFTFQFNNLGNTDINYIKDDTRHIRFDDRQLRLDERSFLALDWDPDLKKRYFDENAAEDFEKHESVEYKPPKKPFVKLKDCIELFTTKEKLGAEDPWYCPNCKEHQQATKKLDLWSLPPVLVVHLKRFSYSRYMRDKLDTLVDFPINDLDMSEFLINPNAGPCRYNLIAVSNHYGGMGGGHYTAFAKNKDDGKWYYFDDSSVSTASEDQIVSKAAYVLFYQRQDTFSGTGFFPLDRETKGASAATGIPLESDEDSNDNDNDIENENCMHTN
notes: Endogenous protein
With B1, in test [1], the binding result was “binds”.

B2: CYLD (enzyme, Homo sapiens, UniProt Q9NQC7-2 1-953, looked up)
chain: MSSGLWSQEKVTSPYWEERIFYLLLQECSVTDKQTQKLLKVPKGSIGQYIQDRSVGHSRIPSAKGKKNQIGLKILEQPHAVLFVDEKDVVEINEKFTELLLAITNCEERFSLFKNRNRLSKGLQIDVGCPVKVQLRSGEEKFPGVVRFRGPLLAERTVSGIFFGVELLEEGRGQGFTDGVYQGKQLFQCDEDCGVFVALDKLELIEDDDTALESDYAGPGDTMQVELPPLEINSRVSLKVGETIESGTVIFCDVLPGKESLGYFVGVDMDNPIGNWDGRFDGVQLCSFACVESTILLHINDIIPESVTQERRPPKLAFMSRGVGDKGSSSHNKPKATGSTSDPGNRNRSELFYTLNGSSVDSQPQSKSKNTWYIDEVAEDPAKSLTEISTDFDRSSPPLQPPPVNSLTTENRFHSLPFSLTKMPNTNGSIGHSPLSLSAQSVMEELNTAPVQESPPLAMPPGNSHGLEVGSLAEVKENPPFYGVIRWIGQPPGLNEVLAGLELEDECAGCTDGTFRGTRYFTCALKKALFVKLKSCRPDSRFASLQPVSNQIERCNSLAFGGYLSEVVEENTPPKMEKEGLEIMIGKKKGIQGHYNSCYLDSTLFCLFAFSSVLDTVLLRPKEKNDVEYYSETQELLRTEIVNPLRIYGYVCATKIMKLRKILEKVEAASGFTSEEKDPEEFLNILFHHILRVEPLLKIRSAGQKVQDCYFYQIFMEKNEKVGVPTIQQLLEWSFINSNLKFAEAPSCLIIQMPRFGKDFKLFKKIFPSLELNITDLLEDTPRQCRICGGLAMYECRECYDDPDISAGKIKQFCKTCNTQVHLHPKRLNHKYNPVSLPKDLPDWDWRHGCIPCQNMELFAVLCIETSHYVAFVKYGKDDSAWLFFDSMADRDGGQNGFNIPQVTPCPEVGEYLKMSLEDLHSLDSRRIQGCARRLLCDAYMCMYQSPTMSLYK
notes: Endogenous protein in cell lysates; the isoform is the one matched by MS; also called Ubiquitin carboxyl-terminal hydrolase CYLD
Regarding B2, the binding result in test [2] and in test [1] was “binds” each time.

B3: SPATA2 (other, human, UniProt Q9UM82 1-520, looked up)
chain: MGKPSSMDTKFKDDLFRKYVQFHESKVDTTTSRQRPGSDECLRVAASTLLSLHKVDPFYRFRLIQFYEVVESSLRSLSSSSLRALHGAFSMLETVGINLFLYPWKKEFRSIKTYTGPFVYYVKSTLLEEDIRAILSCMGYTPELGTAYKLRELVETLQVKMVSFELFLAKVECEQMLEIHSQVKDKGYSELDIVSERKSSAEDVRGCSDALRRRAEGREHLTASMSRVALQKSASERAAKDYYKPRVTKPSRSVDAYDSYWESRKPPLKASLSLRKEPVATDVGDDLKDEIIRPSPSLLTMASSPHGSPDVLPPASPSNGPALLRGTYFSTQDDVDLYTDSEPRATYRRQDALRPDVWLLRNDAHSLYHKRSPPAKESALSKCQSCGLSCSSSLCQRCDSLLTCPPASKPSAFPSKASTHDSLAHGASLREKYPGQTQGLDRLPHLHSKSKPSTTPTSRCGFCNRPGATNTCTQCSKVSCDACLSAYHYDPCYKKSELHKFMPNNQLNYKSTQLSHLVYR
notes: Endogenous protein in cell lysates
Turning to B3, the binding result in test [2] and in test [1] was “binds” each time.

B4: PTP1B (PTPN1) (enzyme, Homo sapiens, UniProt P18031 1-435, looked up)
chain: MEMEKEFEQIDKSGSWAAIYQDIRHEASDFPCRVAKLPKNKNRNRYRDVSPFDHSRIKLHQEDNDYINASLIKMEEAQRSYILTQGPLPNTCGHFWEMVWEQKSRGVVMLNRVMEKGSLKCAQYWPQKEEKEMIFEDTNLKLTLISEDIKSYYTVRQLELENLTTQETREILHFHYTTWPDFGVPESPASFLNFLFKVRESGSLSPEHGPVVVHCSAGIGRSGTFCLADTCLLLMDKRKDPSSVDIKKVLLEMRKFRMGLIQTADQLRFSYLAVIEGAKFIMGDSSVQDQWKELSHEDLEPPPEHIPPPPRPPKRILEPHNGKCREFFPNHQWVKEETQEDKDCPIKEEKGSPLNAAPYGIESMSQDTEVRSRVVGGSLRGAQAASPAKGEPSLPEKDEDHALSYWKPFLVNMCVATVLTAGAYLCYRFLFNSNT
notes: Endogenous protein in cell lysates; also called Tyrosine-protein phosphatase non-receptor type 1
In the case of B4, in test [1], the binding result was “binds”.

B5: CYP51A1 (enzyme, Homo sapiens, UniProt Q16850-2 1-404, looked up)
chain: MVGKTFTYLLGSDAAALLFNSKNEDLNAEDVYSRLTTPVFGKGVAYDVPNPVFLEQKKMLKSGLNIAHFKQHVSIIEKETKEYFESWGESGEKNVFEALSELIILTASHCLHGKEIRSQLNEKVAQLYADLDGGFSHAAWLLPGWLPLPSFRRRDRAHREIKDIFYKAIQKRRQSQEKIDDILQTLLDATYKDGRPLTDDEVAGMLIGLLLAGQHTSSTTSAWMGFFLARDKTLQKKCYLEQKTVCGENLPPLTYDQLKDLNLLDRCIKETLRLRPPIMIMMRMARTPQTVAGYTIPPGHQVCVSPTVNQRLKDSWVERLDFNPDRYLQDNPASGEKFAYVPFGAGRHRCIGENFAYVQIKTIWSTMLRLYEFDLIDGYFPTVNYTTMIHTPENPVIRYKRRSK
notes: Endogenous protein found by proximity labelling/MS; also called Lanosterol 14-alpha demethylase
Regarding B5, the binding result in test [3] is “binds”.
